This note sets out measurements from PMC9772344.

Holding throughout (settings): chain shown with the change; transfected HeLa cells; n = 3 per group; parent: est. 1.0; read off a plot
The target in assay [1] is stromal-interacting molecule 1 (STIM1), Q13586. Kind of assay: Co-IP (GLT-1 capture antibody, immunoblot for STIM1, band quantification). In general terms: Immunoblotting shows a protein as a band on a membrane.
For assay [2] the target is unchanged. Kind of assay: Co-IP (STIM1 capture antibody, immunoblot for GLT-1, band quantification).
The target of another assay is Orai1, Q96D31. Kind of assay: Co-IP (GLT-1 capture antibody, immunoblot for Orai1, band quantification).
Chain of Orai1, Q96D31 (Q96D31 whole entry): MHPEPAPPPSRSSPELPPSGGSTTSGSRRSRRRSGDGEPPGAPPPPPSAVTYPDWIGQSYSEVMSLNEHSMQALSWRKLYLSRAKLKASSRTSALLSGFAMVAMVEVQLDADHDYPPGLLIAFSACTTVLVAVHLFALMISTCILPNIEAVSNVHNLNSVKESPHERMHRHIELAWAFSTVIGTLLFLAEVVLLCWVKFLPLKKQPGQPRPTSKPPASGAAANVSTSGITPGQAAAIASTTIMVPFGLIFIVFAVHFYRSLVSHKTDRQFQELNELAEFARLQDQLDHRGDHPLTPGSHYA

Chain of stromal-interacting molecule 1 (STIM1), Q13586 (Q13586 23-685): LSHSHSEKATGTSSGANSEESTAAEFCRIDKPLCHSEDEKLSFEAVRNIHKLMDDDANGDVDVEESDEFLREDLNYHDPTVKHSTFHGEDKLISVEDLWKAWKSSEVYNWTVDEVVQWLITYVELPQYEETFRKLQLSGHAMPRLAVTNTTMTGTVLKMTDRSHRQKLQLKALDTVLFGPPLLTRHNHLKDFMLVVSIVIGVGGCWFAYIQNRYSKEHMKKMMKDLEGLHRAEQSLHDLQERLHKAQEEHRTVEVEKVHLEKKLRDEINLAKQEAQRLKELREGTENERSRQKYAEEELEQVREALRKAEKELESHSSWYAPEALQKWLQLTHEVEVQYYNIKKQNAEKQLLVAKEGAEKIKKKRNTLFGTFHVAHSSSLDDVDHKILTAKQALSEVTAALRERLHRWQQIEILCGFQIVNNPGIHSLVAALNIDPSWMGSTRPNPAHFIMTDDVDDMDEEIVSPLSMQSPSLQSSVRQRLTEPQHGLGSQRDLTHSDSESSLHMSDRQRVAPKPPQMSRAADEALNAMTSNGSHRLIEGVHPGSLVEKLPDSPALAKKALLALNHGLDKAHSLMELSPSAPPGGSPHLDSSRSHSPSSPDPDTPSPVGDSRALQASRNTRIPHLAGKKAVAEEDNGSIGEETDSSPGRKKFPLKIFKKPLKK

B1: glutamate transporter GLT-1 (excitatory amino acid transporter 2, EAAT2), WT plasmid, P43006 G82R; L85P (protein)
chain: MASTEGANNMPKQVEVRMHDSHLSSDEPKHRNLGMRMCDKLGKNLLLSLTVFGVILGAVCGGLLRLASPIHPDVVMLIAFPRDIPMRMLKMLILPLIISSLITGLSGLDAKASGRLGTRAMVYYMSTTIIAAVLGVILVLAIHPGNPKLKKQLGPGKKNDEVSSLDAFLDLIRNLFPENLVQACFQQIQTVTKKVLVAPPSEEANTTKAVISMLNETMNEAPEETKIVIKKGLEFKDGMNVLGLIGFFIAFGIAMGKMGEQAKLMVEFFNILNEIVMKLVIMIMWYSPLGIACLICGKIIAIKDLEVVARQLGMYMITVIVGLIIHGGIFLPLIYFVVTRKNPFSFFAGIFQAWITALGTASSAGTLPVTFRCLEDNLGIDKRVTRFVLPVGATINMDGTALYEAVAAIFIAQMNGVILDGGQIVTVSLTATLASIGAASIPSAGLVTMLLILTAVGLPTEDISLLVAVDWLLDRMRTSVNVVGDSFGAGIVYHLSKSELDTIDSQHRMQEDIEMTKTQSIYDDKNHRESNSNQCVYAAHNSVVIDECKVTLAANGKSADCSVEEEPWKREK
For the molecule B1, the response (relative band intensity) in assay [1] was 0.08; in assay [2] it was 0.12; with Orai1, Q96D31, 0.27.

B2: glutamate transporter GLT-1 (excitatory amino acid transporter 2, EAAT2), WT plasmid, P43006 G82R (protein)
chain: MASTEGANNMPKQVEVRMHDSHLSSDEPKHRNLGMRMCDKLGKNLLLSLTVFGVILGAVCGGLLRLASPIHPDVVMLIAFPRDILMRMLKMLILPLIISSLITGLSGLDAKASGRLGTRAMVYYMSTTIIAAVLGVILVLAIHPGNPKLKKQLGPGKKNDEVSSLDAFLDLIRNLFPENLVQACFQQIQTVTKKVLVAPPSEEANTTKAVISMLNETMNEAPEETKIVIKKGLEFKDGMNVLGLIGFFIAFGIAMGKMGEQAKLMVEFFNILNEIVMKLVIMIMWYSPLGIACLICGKIIAIKDLEVVARQLGMYMITVIVGLIIHGGIFLPLIYFVVTRKNPFSFFAGIFQAWITALGTASSAGTLPVTFRCLEDNLGIDKRVTRFVLPVGATINMDGTALYEAVAAIFIAQMNGVILDGGQIVTVSLTATLASIGAASIPSAGLVTMLLILTAVGLPTEDISLLVAVDWLLDRMRTSVNVVGDSFGAGIVYHLSKSELDTIDSQHRMQEDIEMTKTQSIYDDKNHRESNSNQCVYAAHNSVVIDECKVTLAANGKSADCSVEEEPWKREK
For B2, the response (relative band intensity) is 0.15 in assay [1]; 0.15 in assay [2]; 0.22 with Orai1, Q96D31.

B3: glutamate transporter GLT-1 (excitatory amino acid transporter 2, EAAT2), WT plasmid, P43006 L85P (protein)
chain: MASTEGANNMPKQVEVRMHDSHLSSDEPKHRNLGMRMCDKLGKNLLLSLTVFGVILGAVCGGLLRLASPIHPDVVMLIAFPGDIPMRMLKMLILPLIISSLITGLSGLDAKASGRLGTRAMVYYMSTTIIAAVLGVILVLAIHPGNPKLKKQLGPGKKNDEVSSLDAFLDLIRNLFPENLVQACFQQIQTVTKKVLVAPPSEEANTTKAVISMLNETMNEAPEETKIVIKKGLEFKDGMNVLGLIGFFIAFGIAMGKMGEQAKLMVEFFNILNEIVMKLVIMIMWYSPLGIACLICGKIIAIKDLEVVARQLGMYMITVIVGLIIHGGIFLPLIYFVVTRKNPFSFFAGIFQAWITALGTASSAGTLPVTFRCLEDNLGIDKRVTRFVLPVGATINMDGTALYEAVAAIFIAQMNGVILDGGQIVTVSLTATLASIGAASIPSAGLVTMLLILTAVGLPTEDISLLVAVDWLLDRMRTSVNVVGDSFGAGIVYHLSKSELDTIDSQHRMQEDIEMTKTQSIYDDKNHRESNSNQCVYAAHNSVVIDECKVTLAANGKSADCSVEEEPWKREK
For the molecule B3, the response (relative band intensity) in assay [1] turned out to be 0.12; in assay [2], 0.13; with Orai1, Q96D31, 0.17.
